Biological target: T1, ACE2-ECD-sFc fusion protein (Homo sapiens)
T1 construct: also called ACE2-sFc; ACE ECD-sFc
Assay: ELISA, plate coated with ACE2 ECD-sFc

B1: HRP alone (enzyme, UniProt P00433 31-338, looked up)
chain: QLTPTFYDNSCPNVSNIVRDTIVNELRSDPRIAASILRLHFHDCFVNGCDASILLDNTTSFRTEKDAFGNANSARGFPVIDRMKAAVESACPRTVSCADLLTIAAQQSVTLAGGPSWRVPLGRRDSLQAFLDLANANLPAPFFTLPQLKDSFRNVGLNRSSDLVALSGGHTFGKNQCRFIMDRLYNFSNTGLPDPTLNTTYLQTLRGLCPLNGNLSALVDFDLRTPTIFDNKYYVNLEEQKGLIQSDQELFSSPNATDTIPLVRSFANSTQTFFNAFVEAMDRMGNITPLTGTQGQIRLNCRVVNSNS
notes: also called HPR alone; control tracer
  binding result: no binding
